Laboratory results taken from patent publication US20250163127A1.
Where a chain is given by its changes, count along the chain named. Names may count otherwise.

B1: CD80 variant Q33L/E35D/M47I/T62N/L85Q IgV-Fc (Fc fusion)
chain: VIHVTKEVKEVATLSCGHNVSVEELAQTRIYWLKDKKMVLTMMSGDINIWPEYKNRTIFDINNNLSIVILALRPSDEGTYECVVQKYEKDAFKREHLAEVT
B2: CD80 variant Q33L/E35D/M47L/V68M/L85Q/E88D IgV-Fc (Fc fusion)
chain: B1 chain with I47L, N62T, V68M, E88D
B3: CD80 variant E35D/M47I/E77A/L85Q/R94W IgV-Fc (Fc fusion)
chain: B1 chain with L33Q, N62T, E77A, R94W
B4: CD80 variant Q33L/E35D/M47V/L85Q IgV-Fc (Fc fusion)
chain: B1 chain with I47V, N62T
B5: CD80 variant E35D/D46E/M47V/L97Q IgV-Fc (Fc fusion)
chain: B1 chain with L33Q, D46E, I47V, N62T, Q85L, L97Q
B6: CD80 variant E7D/E35D/M47I/L97Q IgV-Fc (Fc fusion)
chain: B1 chain with E7D, L33Q, N62T, Q85L, L97Q
B7: CD80 variant Q33L/E35D/N48K/L85Q/L97Q IgV-Fc (Fc fusion)
chain: B1 chain with I47M, N48K, N62T, L97Q
B8: CD80 variant Q33L/E35D/M43I/L85Q/R94W IgV-Fc (Fc fusion)
chain: B1 chain with M43I, I47M, N62T, R94W
B9: CD80 variant A26E/E35D/M43T/M47L/L85Q/R94Q IgV-Fc (Fc fusion)
chain: B1 chain with A26E, L33Q, M43T, I47L, N62T, R94Q
B10: CD80 variant E35D/M47V/A71G/L85M/L97Q IgV-Fc (Fc fusion)
chain: B1 chain with L33Q, I47V, N62T, A71G, Q85M, L97Q
B11: CD80 variant Q33L/E35D/M43V/M47I/A71G IgV-Fc (Fc fusion)
chain: B1 chain with M43V, N62T, A71G, Q85L
B12: CD80 variant V22A/E35D/V68E/A71D IgV-Fc (Fc fusion)
chain: B1 chain with V22A, L33Q, I47M, N62T, V68E, A71D, Q85L
B13: CD80 variant V22A/E23D/Q33L/E35D/M47V IgV-Fc (Fc fusion)
chain: B1 chain with V22A, E23D, I47V, N62T, Q85L
B14: CD80 variant H18L/V22A/E35D/M47L/N48T/L85Q IgV-Fc (Fc fusion)
chain: B1 chain with H18L, V22A, L33Q, I47L, N48T, N62T
B15: CD80 variant Q33L/E35D/M47L/A71G/F92S IgV-Fc (Fc fusion)
chain: B1 chain with I47L, N62T, A71G, Q85L, F92S
B16: CD80 variant Y31S/E35D/M47L/T79L/E88G IgV-Fc (Fc fusion)
chain: B1 chain with Y31S, L33Q, I47L, N62T, T79L, Q85L, E88G
B17: CD80 variant Q33K/E35D/D46V/L85Q IgV-Fc (Fc fusion)
chain: B1 chain with L33K, D46V, I47M, N62T
B18: CD80 variant Q33L/E35D/T41S/M43I IgV-Fc (Fc fusion)
chain: B1 chain with T41S, M43I, I47M, N62T, Q85L
B19: CD80 variant H18Y/E35D/V68M/L97Q IgV-Fc (Fc fusion)
chain: B1 chain with H18Y, L33Q, I47M, N62T, V68M, Q85L, L97Q
B20: CD80 variant H18Y/Y31H/E35D/M47V/A71G/L85Q IgV-Fc (Fc fusion)
chain: B1 chain with H18Y, Y31H, L33Q, I47V, N62T, A71G
B21: CD80 variant Q27H/Q33L/E35D/M47V/N55D/L85Q/K89N IgV-Fc (Fc fusion)
chain: B1 chain with Q27H, I47V, N55D, N62T, K89N
B22: CD80 variant V22A/R29H/E35D/D46E/M47I IgV-Fc (Fc fusion)
chain: B1 chain with V22A, R29H, L33Q, D46E, N62T, Q85L
B23: CD80 variant H18Y/V20A/Q33L/E35D/M47V/Y53F IgV-Fc (Fc fusion)
chain: B1 chain with H18Y, V20A, I47V, Y53F, N62T, Q85L
B24: variant PD-L2 IgV Q82R/V89D Fc fusion (Fc fusion)
chain: LFTVTVPKELYIIEHGSNVTLECNFDTGSHVNLGAITASLQKVENDTSPHRERATLLEEQLPLGKASFHIPQVQVRDEGQYRCIIIYGDAWDYKYLTLKVKA
B25: variant PD-L2 IgV H15Q/T47A/Q82R Fc fusion (Fc fusion)
chain: B24 chain with H15Q, T47A, D89V
B26: variant PD-L2 IgV I13V/S39I/E44D/Q82R/V89D Fc fusion (Fc fusion)
chain: B24 chain with I13V, S39I, E44D
B27: variant PD-L2 IgV S39I/V89D Fc fusion (Fc fusion)
chain: B24 chain with S39I, R82Q
B28: variant PD-L2 IgV H15Q/S39I/I86T Fc fusion (Fc fusion)
chain: B24 chain with H15Q, S39I, R82Q, I86T, D89V
B29: variant PD-L2 IgV S67L/V89D Fc fusion (Fc fusion)
chain: B24 chain with S67L, R82Q
B30: variant PD-L2 IgV H15Q/C23S/I86T Fc fusion (Fc fusion)
chain: B24 chain with H15Q, C23S, R82Q, I86T, D89V
B31: variant PD-L2 IgV H15Q/R76G/I85F Fc fusion (Fc fusion)
chain: B24 chain with H15Q, R76G, R82Q, I85F, D89V
B32: variant PD-L2 IgV E59G/Q82R Fc fusion (Fc fusion)
chain: B24 chain with E59G, D89V
B33: variant PD-L2 IgV I13V/S67L/V89D Fc fusion (Fc fusion)
chain: B24 chain with I13V, S67L, R82Q
B34: variant PD-L2 IgV E44D/V89D/W91R Fc fusion (Fc fusion)
chain: B24 chain with E44D, R82Q, W91R
B35: variant PD-L2 IgV I13V/Q72H/R76G/I86T Fc fusion (Fc fusion)
chain: B24 chain with I13V, Q72H, R76G, R82Q, I86T, D89V
B36: variant PD-L2 IgV S67L/I86T Fc fusion (Fc fusion)
chain: B24 chain with S67L, R82Q, I86T, D89V
B37: variant PD-L2 IgV H15Q/S67L/R76G Fc fusion (Fc fusion)
chain: B24 chain with H15Q, S67L, R76G, R82Q, D89V
B38: variant PD-L2 IgV I13V/H15Q/E44D/V89D Fc fusion (Fc fusion)
chain: B24 chain with I13V, H15Q, E44D, R82Q
B39: variant PD-L2 IgV H15Q/S67L/I86T Fc fusion (Fc fusion)
chain: B24 chain with H15Q, S67L, R82Q, I86T, D89V

Biological target: PD-L1 (human)
Sequence (chain, as listed by the source): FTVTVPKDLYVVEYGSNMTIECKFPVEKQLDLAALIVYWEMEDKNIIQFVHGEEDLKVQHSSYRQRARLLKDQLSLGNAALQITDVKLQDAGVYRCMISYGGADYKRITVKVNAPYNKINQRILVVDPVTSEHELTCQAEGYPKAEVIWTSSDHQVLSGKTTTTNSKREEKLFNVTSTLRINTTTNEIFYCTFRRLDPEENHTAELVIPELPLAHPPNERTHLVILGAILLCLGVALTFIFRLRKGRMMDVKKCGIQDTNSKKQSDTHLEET
Test: flow cytometry, CHO cells stably expressing PD-L1

| Fold change to WT [fold] | MFI at 33.3 nM [MFI] | Binder |
| --- | --- | --- |
| 9.14 | 72600 | B1 |
| 15.8 | 126000 | B2 |
| 8.12 | 64500 | B3 |
| 5.97 | 47400 | B4 |
| 2.45 | 19500 | B5 |
| 1.84 | 14600 | B6 |
| 5.69 | 45200 | B7 |
| 3.65 | 29000 | B8 |
| 8.57 | 68100 | B9 |
| 7.77 | 61700 | B10 |
| 9.82 | 78000 | B11 |
| 0.17 | 1350 | B12 |
| 9.51 | 75500 | B13 |
| 12.3 | 98100 | B14 |
| 3.53 | 28000 | B15 |
| 4.9 | 38900 | B16 |
| 3.36 | 26700 | B17 |
| 5.66 | 44900 | B18 |
| 15.3 | 122000 | B19 |
| 9.61 | 76400 | B20 |
| 1.86 | 14800 | B21 |
| 3.2 | 25400 | B22 |
| 15.2 | 121000 | B23 |

Biological target: CTLA4 (human)
Sequence (chain, as listed by the source): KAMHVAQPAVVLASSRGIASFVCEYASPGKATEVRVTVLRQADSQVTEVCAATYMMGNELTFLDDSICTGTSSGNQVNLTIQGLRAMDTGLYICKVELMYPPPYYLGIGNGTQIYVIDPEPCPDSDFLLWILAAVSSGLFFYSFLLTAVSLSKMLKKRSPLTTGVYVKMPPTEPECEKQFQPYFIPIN
Test: flow cytometry, CHO cells stably expressing CTLA4

| Fold change to WT CD80 [fold] | MFI at 33.3 nM [MFI] | Binder |
| --- | --- | --- |
| 0.01 | 1660 | B1 |
| 0.02 | 3530 | B2 |
| 1.38 | 247000 | B3 |
| 0.42 | 75400 | B4 |
| 1.71 | 305000 | B5 |
| 1.52 | 271000 | B6 |
| 0.01 | 1180 | B7 |
| 0.01 | 1080 | B8 |
| 1.56 | 278000 | B9 |
| 1.34 | 239000 | B10 |
| 0.08 | 14000 | B11 |
| 2.45 | 437000 | B12 |
| 0.02 | 3640 | B13 |
| 2.09 | 374000 | B14 |
| 0.01 | 2110 | B15 |
| 0.01 | 1100 | B16 |
| 0.05 | 8510 | B17 |
| 0.04 | 6390 | B18 |
| 0.97 | 173000 | B19 |
| 0.02 | 3840 | B20 |
| 0.31 | 56100 | B21 |
| 0.43 | 77400 | B22 |
| 0.02 | 2880 | B23 |

Biological target: CD28 (human) (UniProt P10747)
Test: flow cytometry, Jurkat cells (CD28)

| Fold change to WT [fold] | MFI at 33.3 nM [MFI] | Binder |
| --- | --- | --- |
| 0.04 | 284 | B1 |
| 0.03 | 264 | B2 |
| 0.04 | 272 | B3 |
| 0.04 | 268 | B4 |
| 0.05 | 371 | B5 |
| 0.04 | 273 | B6 |
| 0.04 | 279 | B7 |
| 0.04 | 272 | B8 |
| 0.03 | 260 | B9 |
| 0.04 | 339 | B10 |
| 0.04 | 284 | B11 |
| 1.83 | 14000 | B12 |
| 0.04 | 274 | B13 |
| 0.06 | 434 | B14 |
| 0.05 | 366 | B15 |
| 0.04 | 278 | B16 |
| 0.03 | 257 | B17 |
| 0.06 | 433 | B18 |
| 0.04 | 299 | B19 |
| 0.04 | 268 | B20 |
| 0.04 | 269 | B21 |
| 0.04 | 323 | B22 |
| 0.03 | 260 | B23 |

Biological target: human PD-1 (human) (UniProt Q15116)
Sequence (Q15116 25-288): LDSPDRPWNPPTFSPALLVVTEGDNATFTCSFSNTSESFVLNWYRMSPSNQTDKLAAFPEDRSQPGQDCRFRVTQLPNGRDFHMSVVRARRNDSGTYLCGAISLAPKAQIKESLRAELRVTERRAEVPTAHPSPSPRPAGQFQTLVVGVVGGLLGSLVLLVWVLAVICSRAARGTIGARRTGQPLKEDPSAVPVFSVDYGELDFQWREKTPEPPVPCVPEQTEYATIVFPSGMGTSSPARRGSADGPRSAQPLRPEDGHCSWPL
Test: not given

| IFN gamma levels pg/mL (MLR) [pg/mL] | Binder |
| --- | --- |
| 1620 | B24 |
| 1320 | B25 |
| 936 | B26 |
| 1310 | B27 |
| 1420 | B28 |
| 1230 | B29 |
| 1850 | B30 |
| 1730 | B31 |
| 1510 | B32 |
| 868 | B33 |
| 1560 | B34 |
| 1950 | B35 |
| 1020 | B36 |
| 1430 | B37 |
| 1380 | B38 |
| 1030 | B39 |
